Where only a bound is given, the exact number is not on record here.

The target of the experiment is human CD28 (human, UniProt P10747 19-220). Put plainly: cell-based or functional assay.

B1: 1h-114 (other)
VH: EVQLLESGGGLVQPGGSLRLSCAASGFTFASYSMAWVRQAPGKGLEWVSTIMPSGQRTYYADSVKGRFTISRDNSKNTLYLQMNSLRAEDTAVYYCAKNQSHQRRGIFDYWGQGTLVTVSS
Consider B1, for which the “Luciferase assay (EC50)” value was determined as 3100 nM.

B2: 1h-115 (other)
VH: EVQLLESGGGLVQPGGSLRLSCAASGFTFSEYSMAWVRQAPGKGLEWVSHISRDGEFTYYADSVKGRFTISRDNSKNTLYLQMNSLRAEDTAVYYCAKGNADLGWVQPHLFVYWGQGTLVTVSS
On to B2, for which the “Luciferase assay (EC50)” value came to 4000 nM and the “MLR assay (EC50)” value was > 7000 nM.

B3: 1h-71 (other)
VL: DIQMTQSPSSLSASVGDRVTITCRASRDIGHMLNWYQQKPGKAPKLLIWFGSVLQSGVPSRFSGSGSGTDFTLTISSLQPEDFATYYCVQGRLRPPTFGQGTKVEIKR
In the case of B3, the “Luciferase assay (EC50)” value worked out at 3500 nM.

B4: 1h-39 (other)
VL: DIQMTQSPSSLSASVGDRVTITCRASQYIGTALHWYQQKPGKAPRLLIYLSSNLQSGVPSRFSGSGSGTDFTLTISSLQPEDFATYYCQQSALNPYTFGQGTKVEIKR
With B4, the “Luciferase assay (EC50)” value was 1300 nM.

B5: 1h-73 (other)
VL: DIQMTQSPSSLSASVGDRVTITCRASQYIGTQLSWYQQKPGKAPKLLIYRGSLLQSGVPSRFSGSGSGTDFTLTISSLQPEDFATYYCQQTALSPYTFGQGTKVEIKR
Regarding B5, the “Luciferase assay (EC50)” value was 4900 nM.

B6: 1h-69 (other)
VL: DIQMTQSPSSLSASVGDRVTITCRASQKIGTGLRWYQQKPGKAPKLLIYRASVLQSGVPSRFSGSGSGTDFTLTISSLQPEDFATYYCQQTAFPPYTFGQGTKVEIKR
On to B6, for which the “Luciferase assay (EC50)” value is > 7000 nM.

B7: 1h-72 (other)
VL: DIQMTQSPSSLSASVGDRVTITCRASRSINHWLDWYQQKPGKAPTLLISGVSWLQSGVPSRFSGSGSGTDFTLTISSLQPEDFATYYCCQPGFRPCTFGQGTKVEIKR
Consider B7, for which the “Luciferase assay (EC50)” value is 3400 nM.

B8: 1h-119 (other)
VH: EVQLLESGGGLVQPGGSLRLSCAASGFTFTDRCMMWVRQAPGKGLEWVSSIQVEGNHTYYADSVKGRFTISRDNSKNTLYLQMNSLRAEDTAVYYCAKCMTVGPGNSFDYWGQGTLVTVSS
B8: the “Luciferase assay (EC50)” value was 2800 nM.

B9: 1h-70 (other)
VL: DIQMTQSPSSLSASVGDRVTITCRASQSIGTGLRWYQQKPGKAPMLLIYRASILQSGVPSRFSGGGSGTDFTLTISSLQPEDFATYYCQQTWYRPYTFGQGTKVEIKR
Take B9: the “Luciferase assay (EC50)” value is 6600 nM.

B10: 1h-38 (other)
VL: DIQMTQSPSSLSASVGDRVTITCRASQPIGSVLAWYQQKPGKAPKLLIYFSSILQSGVPSRFSGSGSGTDFTLTISGLQPEDFATYYCQQALRSPFTFGQGTKVEIKR
For the molecule B10, the “Luciferase assay (EC50)” value turned out to be 650 nM and the “MLR assay (EC50)” value amounted to 725 nM.

B11: 1h-35-5 (other)
VL: DIQMTQSPSSLSASVGDRVTITCRASQYIGSAISWYQQKPGRAPKLLIYRASYLQSGVPSRFSGSGSGTDFTLTISSLQPEDFATYYCQQLAIRPFTFGQGTKVGIKR
With B11, the “Luciferase assay (EC50)” value came to 261 nM and the “MLR assay (EC50)” value is 248 nM.

B12: 1h-35-7 (other)
VL: DIQMTQSPSSLSASVGDRVTITCRASQYIGSALGWYQQKPGKAPKLLIYRASNLQSGVPSRFSGSGYGTGFTLTISSLQPEDFATYYCQQLAIRPFTFGQGTKVEIKR
B12: the “Luciferase assay (EC50)” value was 79 nM and the “MLR assay (EC50)” value was found to be 270 nM.

B13: 1h-35-9 (other)
VL: DIQMTQSPSSLSASVGDRVTITCRASQYIGSALGWYQQKPGKAPKLLIYRASNMQSGVPSRFSGSGSGTDFTLTISSLQPEDFATYYCQQLAIRPFTFGQGTKVEIKR
As for B13, the “Luciferase assay (EC50)” value is 278 nM and the “MLR assay (EC50)” value stood at 318 nM.

B14: 1h-74 (other)
VL: DIQMTQSPSSLSASVGDRVTITCRASQYIGGALSWYQQKPGKAPKLLIYRASRLQSGVPSRFSGSGSGTDFTLTISSLQPEDFATYYCQQVALVPYTFGQGTKVEIKR
For the molecule B14, the “Luciferase assay (EC50)” value was 1300 nM.

B15: 1h-100 (other)
VH: EVQLLESGGGLVQPGGSLRLSCAASGFTFESYWMSWVRQAPGKGLEWVSTIADTGGLTYYADSVKGRFTISRDNSKNTLYLQMNSLRAEDTAVYYCAKVAYVLDDQPAFDYWGQGTLVTVSS
For B15, the “Luciferase assay (EC50)” value was > 7000 nM.

B16: 1h-36-6 (other)
VL: DIQMTQSPSSLSASVGDRVTITCRASRDIALDLLWYQLKPGKAPKLLIKGWSGLQSGVPSRFSGSGSGTDFTLTISSLQPEDFATYFCAQGWGRPVTFGQGTKVEIKR
Regarding B16, the “Luciferase assay (EC50)” value worked out at 162 nM and the “MLR assay (EC50)” value is 260 nM.

B17: 1h-99-270 (other)
VH: EVQLLESGGGLVQPGGSLRLSCAASGFTFYKANMSWARQAPGKGLEWVSWIEASGVQTFYADSVKGRFTISRDNSKNTLYLQMNSLRAEDTAVYYCAKSPFGPLYGFDYRGQGTLVTVSS
Consider B17, for which the “Luciferase assay (EC50)” value is 4 nM and the “MLR assay (EC50)” value was 6 nM.

B18: 1h-99-277 (other)
VH: EVQLLESGGGLVQPGGSLRLSCAASGFTFDSANMSWARQAPGKGLEWVSWIEAVGVQTFYADSVKGRFTISRDNSKNTLYLQMNSLRAEDTAVYYCAKSPFGPLYGFDYRGQGTLVTVSS
For the molecule B18, the “Luciferase assay (EC50)” value is 6 nM and the “MLR assay (EC50)” value was 9 nM.

B19: 1h-99-297 (other)
VH: EVQLLESGGGLVQPGGSLRLSCAASGFTFDSANMSWARQAPGKGLEWVSWIEAIGVQTFYADSVKGRFTISRDNSKNTLYLQMNSLRAEDTAVYYCAKSPFGPLYGFDYRGQGTLVTVSS
With B19, the “Luciferase assay (EC50)” value is 6 nM and the “MLR assay (EC50)” value amounted to 6 nM.

B20: 1h-99-278 (other)
VH: EVQLLESGGGLVQPGGSLRLSCAASGFTFPHSNMSWARQAPGKGLEWVSWIEDTGTQTFYADSVKGRFTISRDNSKNTLYLQMNSLRAEDTAVYYCAKSPFGPLYGFDYRGQGTLVTVSS
Consider B20, for which the “Luciferase assay (EC50)” value stood at 12 nM and the “MLR assay (EC50)” value stood at 13 nM.

B21: 1h-99-275 (other)
VH: EVQLLESGGGLVQPGGSLRLSCAASGFTFKDKNMSWARQAPGKGLEWVSWIEDTGTQTFYADSVKGRFTISRDNSKNTLYLQMNSLRAEDTAVYYCARSPFGPLYGFDYRGQGTLVTVSS
With B21, the “Luciferase assay (EC50)” value came to 6 nM and the “MLR assay (EC50)” value turned out to be 10 nM.

B22: 1h-99-276 (other)
VH: EVQLLESGGGLVQPGGSLRLSCAASGFTFNRANMSWARQAPGKGLEWVSWIEDTGTQTFYADSVKGRFTISRDNSKNTLYLQMNSLRAEDTAVYYCAKSPFGPLYGFDYRGQGTLVTVSS
With B22, the “Luciferase assay (EC50)” value was found to be 5 nM and the “MLR assay (EC50)” value was 18 nM.
